Experiment [1] concerns the target T1, cynomolgus CCL20-secreted alkaline phosphatase (SEAP) fusion (cynomolgus monkey).
T1 construct: also called cCCL20; cynomolgus CCL20-SEAP; not shown: the SEAP reporter (cDNA from Clontech pSEAP-Enhancer) and its junction to CCL20
T1 chain: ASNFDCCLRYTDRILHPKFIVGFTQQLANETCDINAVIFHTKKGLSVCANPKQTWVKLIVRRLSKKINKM
Nature of the experiment: ELISA on CCL20-SEAP, Abs 450; x axis 'ug/ml' in 4-fold steps down from 10, taken as the antibody concentration as in FIG. 11C. (In general: ELISA stands for enzyme-linked immunosorbent assay.)

Experiment [2] deals with T2, rhesus CCL20-secreted alkaline phosphatase (SEAP) fusion (rhesus monkey).
T2 construct: also called rCCL20; rhesus CCL20-SEAP; not shown: the SEAP reporter (cDNA from Clontech pSEAP-Enhancer) and its junction to CCL20
T2 chain: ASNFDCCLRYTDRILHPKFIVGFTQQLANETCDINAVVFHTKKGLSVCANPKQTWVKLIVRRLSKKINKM
Described as above.

For experiment [3], the target named is rat CCL20-secreted alkaline phosphatase (SEAP) fusion (rat, UniProt P97884 27-96; P05187 23-511). Described as above.
Chain of rat CCL20-secreted alkaline phosphatase (SEAP) fusion (P97884 other isoform, or with tags, fused parts or gaps): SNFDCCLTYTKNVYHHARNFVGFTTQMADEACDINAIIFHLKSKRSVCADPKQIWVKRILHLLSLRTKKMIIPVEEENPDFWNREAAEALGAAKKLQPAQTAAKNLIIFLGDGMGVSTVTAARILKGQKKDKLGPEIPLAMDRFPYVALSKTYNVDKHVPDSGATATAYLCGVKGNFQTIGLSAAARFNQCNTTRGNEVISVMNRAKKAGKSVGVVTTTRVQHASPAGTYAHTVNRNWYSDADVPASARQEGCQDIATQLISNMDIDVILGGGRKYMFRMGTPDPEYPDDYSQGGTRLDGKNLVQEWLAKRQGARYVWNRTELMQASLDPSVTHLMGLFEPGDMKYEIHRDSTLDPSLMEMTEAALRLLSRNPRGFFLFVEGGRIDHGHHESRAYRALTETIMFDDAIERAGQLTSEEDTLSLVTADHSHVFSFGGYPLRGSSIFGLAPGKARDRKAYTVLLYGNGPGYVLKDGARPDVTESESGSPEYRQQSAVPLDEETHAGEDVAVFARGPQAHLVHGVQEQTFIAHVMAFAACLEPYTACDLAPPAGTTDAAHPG
In experiment [4] the target is T3, human CCL20-secreted alkaline phosphatase (SEAP) fusion (human, UniProt P78556 27-96).
T3 construct: also called hCCL20; human CCL20-SEAP; not shown: secreted alkaline phosphatase (SEAP), cDNA from pSEAP-Enhancer vector (Clontech)
T3 sequence (P78556 27-96): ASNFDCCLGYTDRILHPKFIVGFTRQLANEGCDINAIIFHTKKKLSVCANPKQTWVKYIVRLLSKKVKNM
The experiment is described as above.

In experiment [5] the target is T1, cynomolgus CCL20-secreted alkaline …. In words: ELISA (fluorescent HRP substrate): CCL20-SEAP captured on anti-alkaline phosphatase in 5-fold dilutions from 20 nM (x axis, nM), antibody at 1 ug/ml. The procedure: (§1) To test whether the chimeric and humanized antibodies can bind to mouse, cynomolgus, or rhesus macaque CCL20 orthologs, we used ELISA assays as illustrated in FIG. 15. Recombinant secreted alkaline phosphatase (SEAP)-chemokine fusion proteins were engineered as described in Example 2, expressed and purified for all of the CCL20 orthologs tested. Nunc MaxiSorb flat-bottom black plates were coated with 1 μg/ml mouse anti-placental alkaline phosphatase antibody (Pierce, cat# MA1-19354) in 50 mM sodium bicarbonate, pH 9.4, overnight at 4° C. Plates were then blocked using 1× phosphate buffered saline with Tween-20 (PBST) with 5% bovine serum albumin (BSA) for 2 hours at room temperature. 20 nM SEAP-CCL20 fusion proteins were serially diluted 5-fold in Opti-MEM medium (Invitrogen). Chimeric and humanized (HC2/LC3 and HC2/LK3) antibodies were diluted to 1 μg/ml in 1×PBST with 5% BSA, added to the plates, and incubated for 1 hr at room temperature. The plates were then washed with 1×PBST with 5% BSA three times. […] QuantaBlu fluorescent HRP substrate (Pierce cat#15169) was added for detection of bound antibody by measuring fluorescence in a Molecular Devices M5 (Excitation 325 nm/Emission 420 nm) plate reader.
While the hamster anti-mouse CCL20 antibody 2F5-5 MAb bound mouse CCL20 with a 50% effective dose (EC₅₀) of 64 pM (data not shown), neither the chimeric nor humanized anti-human CCL20 antibodies bound detectably to mouse CCL20 or rat CCL20 under the conditions described above. By contrast, both the chimeric and humanized antibodies effectively bound to human, rhesus, and cynomolgus CCL20 (FIGS. 16A-C, 17A and B).

The next experiment deals with T4, recombinant human CCL16 (human, UniProt O15467 24-120).
T4 construct: also called HCC-4
T4 sequence (looked up): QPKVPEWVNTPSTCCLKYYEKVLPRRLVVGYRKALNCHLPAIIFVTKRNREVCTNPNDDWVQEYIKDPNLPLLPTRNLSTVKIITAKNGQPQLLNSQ
Nature of the experiment: SPR (Biacore): antibody captured on anti-human Fc, 100 nM chemokine injected. The protocol: We used Biacore™ analysis to test whether HC2/LK3 and HC2/LC3 cross-react with CCL16. Monoclonal mouse anti-human Fc was immobilized on all four flow cells of a CM5 chip at a flow rate of 25 μl/min with HBS-EP buffer containing 0.2 mg/mL BSA. Subsequently, 50 μl of a 1 μg/ml solution of chimeric, HC2/LC3, or HC2/LK3 antibody in HBS-EP buffer with 0.2 mg/ml BSA was injected over flow cells 2, 3, and 4, respectively. 150 μl of a 100 nM solution of CCL20 or CCL16 in HBS-EP buffer (or buffer alone) with 0.2 mg/ml BSA was then injected over all four flow cells at a flow rate of 40 μl/min. Dissociation followed for 20 min. Flow cell 1 (anti-human Fc antibody alone) was used as a reference for all flow cells.
Under these conditions, human CCL20 bound to the chimeric (FIG. 13A), HC2/LC3 (FIG. 13B), and HC2/LK3 (FIG. 13B) antibodies captured on the chip with similar strength.
For orientation: SPR reads the build-up and loss of mass on a sensor chip optically.

Experiment [6] has as its target T1, cynomolgus CCL20-secreted alkaline …. In words: ELISA, serially diluted CCL20-SEAP captured by anti-alkaline phosphatase antibody, antibody at 1 µg/ml; cynomolgus CCL20-SEAP. The protocol:
as §1

Experiment [7] concerns the target T2, rhesus CCL20-secreted alkaline …. Nature of the experiment: ELISA, serially diluted CCL20-SEAP captured by anti-alkaline phosphatase antibody, antibody at 1 µg/ml; rhesus CCL20-SEAP. The procedure:
as §1, with “reader. […]” for “reader.”

B1: mouse anti-human CCL20 monoclonal antibody 36F7C10 (antibody, V domains shown)
VH: QVQLQQPGAELVKPGASVKMSCKASGYTFTNYWMHWVKQRPGQGLEWIGVIDPSDSYTTYNQKFKGKATLTVDTSSSTAYMQLSSLTSEDSAVYYCTRGNYGVDYAMDYWGQGTSVTVSS
VL: DIQMTQSPASLSASVGETVTITCGASENIYGALNWYQRKQGKSPQLLIYGATNLADGMSSRFSGSGSGRQYSLKISSLHPDDVATYYCQNVLITPYTFGGGTKLEIK
notes: Mouse hybridoma antibody; also called MouseMAb; parental mouse clone 36F7C10
Take B1: the figures for the concentration for a half-maximal effect (EC50 (read off the curve)) in experiment [1], in experiment [2] and in experiment [4] were ~0.009 µg/mL, ~0.01 µg/mL and ~0.009 µg/mL, respectively. Further, the binding result in experiment [3] is “no binding (tested: 10 ug/ml)”.

B2: chimeric 36F7C10 antibody (36F7C10-hFc) (antibody, V domains shown)
VH: QVQLQQPGAELVKPGASVKMSCKASGYTFTNYWMHWVKQRPGQGLEWIGVIDPSDSYTTYNQKFKGKATLTVDTSSSTAYMQLSSLTSEDSAVYYCTRGNYGVDYAMDYWGQGTSVTVSS
VL: DIQMTQSPASLSASVGETVTITCGASENIYGALNWYQRKQGKSPQLLIYGATNLADGMSSRFSGSGSGRQYSLKISSLHPDDVATYYCQNVLITPYTFGGGTKLEIK
notes: also called chimeric 36F710; Chimeric MAb
With B2, a half-maximal effect in experiment [5] (EC50) was put at 0.101 nM. The values for the binding result (with recombinant human CCL16; in experiment [3]) were “no binding (tested: 100 nM)” and “no binding (tested: 10 ug/ml)”, respectively. For the same molecule, the “EC50 (read off the curve)” value in experiment [1], in experiment [2] and in experiment [4] was ~0.03 µg/mL throughout.

B3: humanized anti-human CCL20 antibody 36LK3/36HC2 (antibody, human IgG1, kappa, V domains shown)
VH: QVQLVQSGAEVKKPGASVKVSCKASGYTFTNYWMHWVRQAPGQGLEWMGVIDPSDSYTTYAQKFQGRVTMTVDTSTSTVYMELSSLRSEDTAVYYCARGNYGVDYAMDYWGQGTLVTVSS
VL: DIQMTQSPSSLSASVGDRVTITCGASENIYGALNWYQRKPGKAPKLLIYGATNLADGVPSRFSGSGSGRDYTLTISSLQPEDFATYYCQNVLITPYTFGQGTKLEIKR
notes: expressed in HEK293 cells; also called HC2/LK3; HC2LK3
Regarding B3, in experiment [5], the EC50 (in general, the concentration at which the effect is half-maximal) stood at 0.162 nM. Further, the binding result in the experiment with recombinant human CCL16 is “no binding (tested: 100 nM)”.

B4: humanized anti-human CCL20 antibody 36LC3/36HC2 (antibody, human IgG1, kappa, V domains shown)
VH: QVQLVQSGAEVKKPGASVKVSCKASGYTFTNYWMHWVRQAPGQGLEWMGVIDPSDSYTTYAQKFQGRVTMTVDTSTSTVYMELSSLRSEDTAVYYCARGNYGVDYAMDYWGQGTLVTVSS
VL: DIQMTQSPSSLSASVGDRVTITCRASENIYGALNWYQQKPGKAPKLLIYGATNLADGVPSRFSGSGSGRQYSLTISSLQPEDFATYYCQNVLITPYTFGGGTKLEIKR
notes: expressed in HEK293 cells; also called HC2/LC3; HC2LC3
With B4, the EC50 in experiment [6] came out at 0.34 nM; in experiment [7], 0.101 nM.

These data come from US20160046707A1 (EISAI R AND D MANAGEMENT, published 2016).
